Assay results as given in patent publication US20250075190A1, “DE NOVO DESIGNED LUCIFERASE” (UNIVERSITY OF WASHINGTON, priority 2022, published 2025).

B1: LuxSit-i: LuxSit variant R60S/A96L/M110V, SEQ ID NO:2, named for high brightness (protein)
chain: MSEEQIRQFLRRFYEALDSGDADTAASLFHPGVTIHLWDGVTFTSREEFREWFERLFSTSKDAQREIKSLEVRGDTVEVHVQLHATHNGQKHTVDLTHHWHFRGNRVTEVRVHINPTG
modifications: VARIANT 1 optionally absent; VARIANT 118 optionally absent

Experiments:
[1] = molecular target: T1, native Renilla reniformis luciferase (RLuc) (Renilla reniformis, UniProt P27652); experiment: Michaelis-Menten kinetics of native Renilla luciferase (RLuc) with CTZ; type: biochemical; conditions: substrate CTZ; Table 3
T1 construct: host and tag of RLuc not clearly stated
T1 sequence (P27652 1-311): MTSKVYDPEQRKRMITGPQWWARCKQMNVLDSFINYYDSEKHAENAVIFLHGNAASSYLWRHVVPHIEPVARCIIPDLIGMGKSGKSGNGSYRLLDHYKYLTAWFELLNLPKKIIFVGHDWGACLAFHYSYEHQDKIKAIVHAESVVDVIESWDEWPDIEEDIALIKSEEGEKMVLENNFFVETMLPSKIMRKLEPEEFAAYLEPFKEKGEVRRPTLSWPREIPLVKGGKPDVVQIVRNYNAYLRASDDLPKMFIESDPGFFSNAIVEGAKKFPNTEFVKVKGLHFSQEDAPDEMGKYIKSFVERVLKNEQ
Source text: Synthetic genes and oligonucleotides were purchased from Integrated DNA Technologies or GenScript. The synthetic gene was inserted between NdeI and XhoI sites of a pET29b+ vector, containing an N-terminal hexahistidine tag followed by a TEV protease cleavage site and a C-terminal stop codon. Restriction endonucleases, Q5 PCR polymerase, and T4 ligase were purchased from NEB. Plasmid DNA, PCR products, or digested fragments were purified by Qiagen DNA purification kits. DNA sequences were analyzed by Genewiz. Coelenterazine (CTZ) was purchased from Gold Biotechnology. Diphenylterazine (DTZ), pyridyl diphenylterazine (8pyDTZ), and Furimazine (FRZ) were purchased from MedChemExpress. […] DNA and protein concentrations were determined by a NanoDrop™ small-volume 8 channel UV/vis spectrometer. […] All luminescence measurements were acquired by a Biotek Synergy Neo2T™ Multi-Mode Plate Reader. To convert relative arbitrary unit (RLU) to the number of photons, Neo2 plate reader was calibrated by determining the chemiluminescence of luminol with known quantum yield in the presence of horseradish peroxidase and hydrogen peroxide in K2CO3 aqueous solution as previously described^45. SDS PAGE and luminescence images were captured by a Bio-Rad ChemiDocT™ XRS+. Images were analyzed using the Fiji image analysis software. […]

[2] = Luminescent quantum yield of LuxSit variants; type: biochemical; conditions: consuming 125 pmol of DTZ in PBS with 50 nM recombinant luciferase; estimated relative to reported quantum yield of RLuc; mean ± s.d., n = 3
Experimental: (§1) FIG. 10. Additional characterization of LuxSit variants. (a) Normalized emission kinetics of 15,000 intact HeLa cells expressing LuxSit-i, 100 nM purified LuxSit-i, or 100 nM purified LuxSit-f in the presence of 50 μM DTZ. The more extended emission kinetics in HeLa cells is likely due to the diffusion rate of DTZ across cell membranes. […] (c) Luminescent quantum yield was estimated from the integrated luminescence signal until completely converting 125 pmol substrates to photons in the presence of 50 nM corresponding luciferase (see Methods). All data points were plotted as the average of triplicate measurements.
For Michaelis-Menten kinetics measurements, 25 μL of serial diluted DTZ substrate in Tris pH 8.0 buffer was added into the wells of a white 96-well half-area microplate containing 25 μL of purified luciferases (final enzyme concentration: 100 nM; substrate concentration: 0.78 to 50 μM). […] The luminescence signals were monitored until the reactions were completed (0.1 s integration and measurements were taken every 5 s for a total of 40 min). […] In vitro luminescence activity measurements of LuxSit-i expressing HEK293T or HeLa cells were done similarly as 15,000 intact cells or lysates were used in the assay instead of purified luciferases. […] Data were shown as the total luminescence signal over the first 10 min. […]

[3] = Substrate specificity on coelenterazine substrate analogs; type: biochemical
Experimental: FIG. 4. High substrate specificity of designed luciferases allows multiplexed bioassay. (a) Chemical structures of Coelenterazine substrate analogs. (b) Activity of LuxSit-i on selected luciferin substrates. Luminescence image (top) and signal quantification (bottom) of the indicated substrate in the presence of 100 nM LuxSit-i. LuxSit-i has high specificity for the design target substrate, DTZ. (c) Heatmap visualization of the substrate specificity of LuxSit-i. Renilla luciferase (RLuc), Gaussia luciferase (GLuc), engineered NLuc from Oplophorus luciferase. […] (d) Luminescence emission spectrum of LuxSit-i/DTZ and RLuc/PP-CTZ can be spectrally resolved by 528/20 and 390/35 filters (shown in dashed bars) and only recognize the cognate substrate. (e) Schematic of the multiplex luciferase assay. […] (f-g) Luminescence signals from cells can be measured under either substrate-resolved or spectrally resolved methods by a plate reader. (f) For the substrate-resolved method, luminescence intensity was recorded without a filter after adding either PP-CTZ or DTZ. […] Luminescence signals were acquired from the lysate of 15,000 cells in CelLytic™ M reagent while CyOFP fluorescence signal was used to normalize cell numbers and transfection efficiencies. […]

[4] = Michaelis-Menten kinetics measurements of purified luciferases; type: biochemical
Experimental: For Michaelis-Menten kinetics measurements, 25 μL of serial diluted DTZ substrate in Tris pH 8.0 buffer was added into the wells of a white 96-well half-area microplate containing 25 μL of purified luciferases (final enzyme concentration: 100 nM; substrate concentration: 0.78 to 50 μM). Measurements were taken every 1 min (0.1 s integration and 10 s shaking between each interval) for a total of 20 min. Initial velocities were estimated as the average of the light intensities from the first three data points to fit the Michaelis-Menten equation. All relative arbitrary unit (RLU) per second values were converted to photon/s by the luminol-H2O2—HRP calibration method^45. Following the equation: Imax=LQY×kcat×[E], Imax is the maximal photon flux (photon s^−1), [E] is the total enzyme concentration, and V ax is the maximum photon flux per molecule (photon s^−1 molecule^−1) from the fitting of the Michaelis-Menten equation. To determine the luminescent quantum yields, 25 μL of 5 μM individual substrate in PBS was injected into 25 μL PBS containing 100 nM corresponding luciferase. DTZ was used for all LuxSit variants while CTZ was used as the substrate of native RLuc. The luminescence signals were monitored until the reactions were completed (0.1 s integration and measurements were taken every 5 s for a total of 40 min). […] To record emission spectra, 25 μL of 50 μM DTZ in PBS were injected into 25 μL of 200 nM pure luciferases and the emission spectra were collected with 0.1 s integration and 2 nm increments from 300 to 700 num. In vitro luminescence activity measurements of LuxSit-i expressing HEK293T or HeLa cells were done similarly as 15,000 intact cells or lysates were used in the assay instead of purified luciferases. To evaluate the substrate specificity, 25 μL of 50 μM substrate analogs in PBS were added to 25 μL of 200 nM indicated luciferases, and the signals were recorded over 20 min. Data were shown as the total luminescence signal over the first 10 min. We normalized the data by setting the highest emission substrate at 100%.

[5] = Luciferase activities of re-designed sequences based on LuxSit-i (Table 1); type: biochemical; conditions: LuxSit-f and re-designed sequences based on LuxSit-i (Table 1)
Source text: In another embodiment, the proteins comprise an amino acid sequence at least 30%, 35%, 40%, 45%, 50%, 55%, 60%, 65%, 70%, 75%, 80%, 85%, 90%, 91%, 92%, 93%, 94%, 95%, 96%, 97%, 98%, 99%, or 100% identical to the amino acid selected from the group consisting of SEQ ID NO:1-181, as shown in Table 1. SEQ ID NO:5-181 in Table 1 are re-designed amino acid sequences based on LuxSit-i (SEQ ID NO:2), with their luciferase activities shown.

[6] = Luminescence decay curves of LuxSit-i in various pH buffers; type: biochemical
Experimental: as §1

[7] = Circular dichroism spectra and thermal denaturation; type: physicochemical; conditions: 220 nm, 25° C. to 95° C.
Source text: Synthetic genes and oligonucleotides were purchased from Integrated DNA Technologies or GenScript. The synthetic gene was inserted between NdeI and XhoI sites of a pET29b+ vector, containing an N-terminal hexahistidine tag followed by a TEV protease cleavage site and a C-terminal stop codon. Restriction endonucleases, Q5 PCR polymerase, and T4 ligase were purchased from NEB. Plasmid DNA, PCR products, or digested fragments were purified by Qiagen DNA purification kits. DNA sequences were analyzed by Genewiz. Coelenterazine (CTZ) was purchased from Gold Biotechnology. Diphenylterazine (DTZ), pyridyl diphenylterazine (8pyDTZ), and Furimazine (FRZ) were purchased from MedChemExpress. […] DNA and protein concentrations were determined by a NanoDrop™ small-volume 8 channel UV/vis spectrometer. […] All luminescence measurements were acquired by a Biotek Synergy Neo2T™ Multi-Mode Plate Reader. To convert relative arbitrary unit (RLU) to the number of photons, Neo2 plate reader was calibrated by determining the chemiluminescence of luminol with known quantum yield in the presence of horseradish peroxidase and hydrogen peroxide in K2CO3 aqueous solution as previously described^45. SDS PAGE and luminescence images were captured by a Bio-Rad ChemiDocT™ XRS+. Images were analyzed using the Fiji image analysis software.
Purified protein samples were prepared at 15 μM in pH 7.4 10 mM phosphate buffer. Spectra from 190 nm to 260 nm were recorded at 25° C., 50° C., 75° C., 95° C., and after cooling back to 25° C. Thermal denaturation was monitored at 220 nm from 25° C. to 95° C. […]

| Molecule | Vmax [1] | higher photon flux over LuxSit (25 μM DTZ) | Relative emission intensity (integrated luminescence intensity over the first 20 min, normalized to LuxSit, 25 μM DTZ in Tris pH 8.0 buffer) | LQY (luminescent quantum yield) [2] | selectivity for DTZ over bis-CTZ [3] | photon flux (photon s^−1) greater than native Renilla reniformis luciferase (RLuc) [4] | Activity [5] | pH dependence of DTZ luminescent reaction [6] | thermal stability (CD melting) [7] |
| --- | --- | --- | --- | --- | --- | --- | --- | --- | --- |
| Oc1ccc(Cc2nc3c(Cc4ccccc4)nc(-c4ccc(O)cc4)cn3c2O)cc1 [CTZ, Coelenterazine] | 0.26 photon s^−1 molecule^−1 | – | – | – | – | – | – | – | – |
| B1 | – | more than 100 fold | 153 | 14.5 ± 1.8% | 50 fold | 38% | 763.6 | pH-dependent | thermostable |
